From patent US20230212268A1 (UNM RAINFOREST INNOVATIONS, published 2023)
“And” between values parts separate entries of the source, which are not always exact repeats. Identical values can stand only once. Like-named read-outs stand apart in the source and are kept apart here.

Key:
[1] = target: T1, recombinant TAFV glycoprotein (TAFV (Tai Forest virus), UniProt Q66810 33-650)
T1 sequence: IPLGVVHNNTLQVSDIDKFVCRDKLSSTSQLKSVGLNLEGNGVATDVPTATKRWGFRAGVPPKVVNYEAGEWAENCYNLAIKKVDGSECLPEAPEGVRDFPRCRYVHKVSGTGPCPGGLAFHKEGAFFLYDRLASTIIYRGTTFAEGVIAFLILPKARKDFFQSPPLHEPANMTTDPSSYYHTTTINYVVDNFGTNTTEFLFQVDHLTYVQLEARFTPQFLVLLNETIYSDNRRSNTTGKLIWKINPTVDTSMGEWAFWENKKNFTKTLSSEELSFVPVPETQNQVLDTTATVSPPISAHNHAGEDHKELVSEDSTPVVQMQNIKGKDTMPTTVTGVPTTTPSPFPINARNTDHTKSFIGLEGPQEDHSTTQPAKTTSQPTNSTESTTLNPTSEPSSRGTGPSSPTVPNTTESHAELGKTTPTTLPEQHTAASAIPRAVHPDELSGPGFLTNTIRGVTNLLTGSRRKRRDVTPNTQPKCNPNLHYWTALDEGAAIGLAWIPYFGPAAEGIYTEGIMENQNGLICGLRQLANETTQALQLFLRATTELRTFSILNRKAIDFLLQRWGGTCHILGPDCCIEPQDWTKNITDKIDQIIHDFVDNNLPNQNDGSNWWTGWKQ

[2] = target: T2, recombinant EBOV glycoprotein (EBOV (Zaire ebolavirus), UniProt Q05320 33-650); test: ELISA dose response, GP coated
T2 sequence: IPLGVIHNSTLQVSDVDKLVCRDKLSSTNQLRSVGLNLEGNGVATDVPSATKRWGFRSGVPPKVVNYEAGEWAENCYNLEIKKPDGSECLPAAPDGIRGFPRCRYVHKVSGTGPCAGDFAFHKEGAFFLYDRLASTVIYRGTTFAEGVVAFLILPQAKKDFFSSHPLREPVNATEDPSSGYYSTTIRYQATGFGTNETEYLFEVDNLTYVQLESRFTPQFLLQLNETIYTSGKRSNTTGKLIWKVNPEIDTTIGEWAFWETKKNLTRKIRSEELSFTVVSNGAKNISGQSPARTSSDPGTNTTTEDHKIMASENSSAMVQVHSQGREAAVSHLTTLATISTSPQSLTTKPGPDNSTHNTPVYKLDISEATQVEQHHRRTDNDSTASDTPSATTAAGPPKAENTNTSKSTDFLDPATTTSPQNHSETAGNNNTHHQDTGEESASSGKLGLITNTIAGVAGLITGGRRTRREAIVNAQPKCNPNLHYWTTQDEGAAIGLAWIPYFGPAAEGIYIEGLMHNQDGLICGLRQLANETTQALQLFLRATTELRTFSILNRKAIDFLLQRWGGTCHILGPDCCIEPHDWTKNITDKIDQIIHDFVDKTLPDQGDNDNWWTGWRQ

[3] = target: T3, recombinant SUDV glycoprotein (SUDV (Sudan ebolavirus), UniProt Q7T9D9 33-650); test: ELISA dose response, GP coated
T3 sequence: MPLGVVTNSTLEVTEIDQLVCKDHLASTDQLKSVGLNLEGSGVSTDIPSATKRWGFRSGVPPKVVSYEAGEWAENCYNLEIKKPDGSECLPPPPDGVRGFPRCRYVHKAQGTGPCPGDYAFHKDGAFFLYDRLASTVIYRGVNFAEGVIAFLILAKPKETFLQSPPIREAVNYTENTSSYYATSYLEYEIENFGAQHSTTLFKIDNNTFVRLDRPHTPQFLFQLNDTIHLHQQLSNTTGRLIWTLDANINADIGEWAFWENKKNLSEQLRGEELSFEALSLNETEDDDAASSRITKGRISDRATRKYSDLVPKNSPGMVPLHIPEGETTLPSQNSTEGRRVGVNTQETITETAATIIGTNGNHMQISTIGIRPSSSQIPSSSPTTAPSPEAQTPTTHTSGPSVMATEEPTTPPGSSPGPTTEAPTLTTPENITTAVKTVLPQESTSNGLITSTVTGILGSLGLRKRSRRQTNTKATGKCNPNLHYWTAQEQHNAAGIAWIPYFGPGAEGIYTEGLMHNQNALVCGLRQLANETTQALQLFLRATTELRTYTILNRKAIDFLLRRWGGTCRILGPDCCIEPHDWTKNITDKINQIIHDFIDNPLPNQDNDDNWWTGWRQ

[4] = target: T4, recombinant RESTV glycoprotein (RESTV (Reston ebolavirus), UniProt Q66799 34-651); test: ELISA dose response, GP coated
T4 sequence: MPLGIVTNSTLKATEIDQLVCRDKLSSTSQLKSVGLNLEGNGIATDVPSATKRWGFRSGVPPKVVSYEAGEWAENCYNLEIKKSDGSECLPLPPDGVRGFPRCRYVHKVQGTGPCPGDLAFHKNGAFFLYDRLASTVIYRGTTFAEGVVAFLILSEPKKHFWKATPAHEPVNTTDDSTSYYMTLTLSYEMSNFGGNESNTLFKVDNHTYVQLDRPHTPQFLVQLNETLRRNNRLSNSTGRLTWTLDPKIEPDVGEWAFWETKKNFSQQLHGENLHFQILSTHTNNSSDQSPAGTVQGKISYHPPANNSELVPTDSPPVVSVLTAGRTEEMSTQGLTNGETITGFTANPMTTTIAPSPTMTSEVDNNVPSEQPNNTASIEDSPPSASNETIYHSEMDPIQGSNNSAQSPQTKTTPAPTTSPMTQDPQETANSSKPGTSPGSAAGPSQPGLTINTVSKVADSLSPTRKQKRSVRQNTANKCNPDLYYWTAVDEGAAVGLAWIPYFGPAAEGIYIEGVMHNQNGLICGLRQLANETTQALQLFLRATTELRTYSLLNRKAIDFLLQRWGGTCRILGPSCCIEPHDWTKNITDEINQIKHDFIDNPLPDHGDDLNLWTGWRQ

[5] = target: T1, recombinant TAFV glycoprotein; test: ELISA dose response, GP coated
[6] = target: T5, recombinant MARV glycoprotein (MARV (marburgvirus, Ravn), UniProt Q1PDC7 19-648); test: ELISA dose response, GP coated
T5 sequence: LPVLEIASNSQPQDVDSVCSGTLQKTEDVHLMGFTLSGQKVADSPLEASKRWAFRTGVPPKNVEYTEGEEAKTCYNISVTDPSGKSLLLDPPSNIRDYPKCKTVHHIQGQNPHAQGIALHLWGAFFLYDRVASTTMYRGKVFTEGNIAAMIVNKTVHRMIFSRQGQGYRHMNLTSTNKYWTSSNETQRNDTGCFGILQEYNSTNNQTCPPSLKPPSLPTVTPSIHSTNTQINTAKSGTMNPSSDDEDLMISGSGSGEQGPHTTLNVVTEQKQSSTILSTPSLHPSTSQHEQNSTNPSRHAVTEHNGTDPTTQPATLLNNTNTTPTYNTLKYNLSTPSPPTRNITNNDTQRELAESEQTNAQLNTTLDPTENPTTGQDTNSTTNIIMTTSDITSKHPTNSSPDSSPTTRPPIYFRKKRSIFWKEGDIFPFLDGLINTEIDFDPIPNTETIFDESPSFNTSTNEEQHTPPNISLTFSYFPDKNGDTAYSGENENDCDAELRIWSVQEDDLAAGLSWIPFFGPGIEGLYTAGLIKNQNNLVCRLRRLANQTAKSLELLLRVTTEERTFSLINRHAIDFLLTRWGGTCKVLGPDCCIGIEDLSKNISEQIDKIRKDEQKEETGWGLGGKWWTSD

[7] = target: T2, recombinant EBOV glycoprotein; test: maximal binding from ELISA dose-response fit
[8] = target: T3, recombinant SUDV glycoprotein; test: maximal binding from ELISA dose-response fit
[9] = target: T4, recombinant RESTV glycoprotein; test: maximal binding from ELISA dose-response fit
[10] = target: T1, recombinant TAFV glycoprotein; test: maximal binding from ELISA dose-response fit
[11] = target: T5, recombinant MARV glycoprotein; test: maximal binding from ELISA dose-response fit
[12] = target: T2, recombinant EBOV glycoprotein; test: ELISA, GP coated
[13] = target: T3, recombinant SUDV glycoprotein; test: ELISA, GP coated
[14] = target: T4, recombinant RESTV glycoprotein; test: ELISA, GP coated
[15] = target: T1, recombinant TAFV glycoprotein; test: ELISA, GP coated
[16] = target: T5, recombinant MARV glycoprotein; test: ELISA, GP coated

B1: EbovGPscFv22-1 (scFv)
scFv: MAWSHPQFEKTGSGQVQLQQPGTELVKPGASVKLSCKASGYTFTSYWMHWVKQRPGQGLEWIGNTNPSNGGTNYNEKFKSKATLTVDKSSNTAYMQLSSLTSEDSAVYYCARSVSGNFAYWGQGTLVTVSAGGGGSGGGGSGGGGSGGGGSLSLPVSLGDQASISCRSSQSLVHSNGNTYLHWYLQKPGQSPKLLIYKVSNRFSGVPDRFSGSGSGTDFTLKISRVEAEDLGVYFCSQSTHVPWTFGGGTKLEIKRADAAPTVSIFPPSSEQLTSGGASVVCFLNNFTHCQELQQDECS
For B1, the EC50 [1] was 12 µg/mL, the EC50 [2] was < 12 µg/mL and 7.36 µg/mL and the EC50 [3] was < 12 µg/mL and 7.94 µg/mL. The EC50 [4] was 9 µg/mL and < 12 µg/mL, the EC50 [5] was 11.6 µg/mL and < 12 µg/mL and the EC50 [6] was < 12 µg/mL and 6.58 µg/mL. It also gave a Bmax signal [7] of 370000 relative absorbance units, a Bmax signal [8] of 280000 relative absorbance units and a Bmax signal [9] of 320000 relative absorbance units. It also gave a Bmax signal [10] of 270000 relative absorbance units and a Bmax signal [11] of 250000 relative absorbance units.

B2: EbovGPscFv13-1 (scFv)
scFv: MAWSHPQFEKTGSGQVQLQQSGAELVKPGASVKLSCKASGYTFTEYTIHWVKQRSGQGLEWIGWFYPGSGSIKYDEKFKDKATLTADKSSSTVYMELSRLTSEDSAVYFCARHEPYYYGSSYEGPFDYWGQGTTLTVSSGGGGSGGGGSGGGGSGGGGSSPLSVSAGEKVTMSCKSSQSLLNSGNQKNYLAWYQQKPGQPPKLLIYGASTRESGVPDRFTGSGSGTDFTLTISSVQAEDLAVYYCQNDHSYPLTFGAGTKLELKRADAAPTVSIFPPSSEQLTSGGASVVCFLNNFTHCQELQQDECS
B2: binds [12].

B3: EbovGPscFv35-2 (scFv)
scFv: MAWSHPQFEKTGSGDVKLQESGPGLVKPSQSLSLTCSVTGYSITSGYYWNWIRQFPGNKLEWMGYISYDGSNNYNPSLKNRISITRDTSKNQFFLKLNSVTTEDTATYYCARESPYYGSSHWYFGVWGTGTTVTVSSGGGGSGGGGSGGGGSGGGGSASLSASVGETVTITCRTSENIYSYLAWYQQKQGKSPQLLVYNAKTLAEGVPSRFSGSGSGTQFSLKINSLQPEDFGSYYCQHHYGIPPWTFGGGTKLEIKRADAAPTVSIFPPSSEQLTSGGASVVCFLNNFTHCQELQQDECS
B3: binds [12].

B4: EbovGPscFv16-1 (scFv)
scFv: MAWSHPQFEKTGSGGAELVRSGASVKLSCTASGFNIKDDYMHWVKQRPEQGLKWIGWIDPENGDTEYASKLQGKATITADTSSNTAYLQLSSLTSEDTAVYYCARPIYYYGSSHWYFDVWGTGTTVTVSSGGGGSGGGGSGGGGSGGGGSLSLPVSLGDQASISCRSSQSLVHSNGNTYLHWYLQKPGQSPKLLIYKVSNRFSGVPDRFSGSGSGTDFTLKISRVEAEDLGVYFCSQSTHVPWTFGGGTKLEVKRADAAPTVSIFPPSSEQLTSGGASVVCFLNNFTHCQELQQDECS
B4: binds [12].

B5: EbovGPscFv27-5 (scFv)
scFv: MAWSHPQFEKTGSGQVQLQQSGAELVKPGASVKSSCTATGFNIKDYYIHWVKQRTEQGLEWIGRIDPEDGETKYAPKFQGKATITADISPNTAYLQPSSLTSEDTAVYYCTRGGYYGPWYFDVWGTGTTVTVSSGGGGSGGGGSGGGGSGGGGSASLSVSVGETVTITCRASENIYSYLAWYQQKQGKSPQLLVYNAKTLAEGVPSRFSGSGSGTQFSLKINNLQPEDFGSYYCQRHYDTPYTFGGGTKLEIKRADAAPTVSIFPPSSEQLTSGGASVVCFLNNFTHCQELQQDECS
B5: no binding [13]; no binding [14]; no binding [15]. B5: no binding [16].
